According to the supplement of paper PMC10126150:
± gives the standard deviation of the averaged measurements.

System: ATP
Assay: switch fluorescence ratio, 500 uM ATP over buffer (Cy3 cluster intensity, sum of 5 cycles each) (fold (ratio)); higher = stronger signal-on switching upon ATP binding; sequences stand for … in TCGTCGGCAGCGTCAGATGTGTATAAGAGACAGTTTTTTTTTTTTTTTTTTTTTTTTT…TC
Details: aptamer strand: ATP DNA aptamer (quencher-CACCTGGGGGAGTATTGCGGAGGAAGG + anchor), 100 nM annealed; ATP concentration: 500 uM
How it was run: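 The fluorescence ratio divides summed target-cycle Cy3 intensity by summed buffer-cycle Cy3 intensity for each cluster and is averaged per switch-domain sequence. Cy3-labelled switching-strand clusters on a modified Illumina MiSeq flow-cell were annealed to 100 nM quencher-labelled ATP aptamer, then imaged in selection buffer and again after 15 min with 500 uM ATP at 22 °C. Five such cycles were run, with NaOH stripping and re-annealing between them, and clusters outside 100-1000 RFU were excluded.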
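Note: ATP exposure 15 min at 22 °C before imaging.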

Sequence	switch fluorescence ratio
TCTTGGTTTT	1.02 ± 0.044
AGAATCGACG	0.993 ± 0.056
ATGCAGCGGG	1.01 ± 0.028
ACAATGGATG	0.994 ± 0.041
CTTAGCGGCC	1.007 ± 0.0038
CCATTTCTGA	1.03 ± 0.015
CGCACTTCTG	1.02 ± 0.024
ACAAACGGGT	1.44 ± 0.073
TCTTTGATTT	1 ± 0.048
GCGGCATGGT	0.985 ± 0.0093
TAAGAGGATC	1.0083 ± 6.4e-05
GAGCAAGGTT	1.24 ± 0.2
AACAGGTGGG	1.24 ± 0.023
CCGGGCCAGC	1.47 ± 0.063
AAAGGGACGG	0.9829 ± 0.0091
CAAGTGTTCG	0.996 ± 0.03
GGCTTTTACT	1.04 ± 0.019
TTTTTCAGGT	0.997 ± 0.015
ACTCATGACG	1.045 ± 0.0025
GGTTGTACGT	0.984 ± 0.01
TACGGCTAAG	1.07 ± 0.047
AAGTGTGCGA	0.997 ± 0.028
AATCGATTCC	1.04 ± 0.034

Sequence	switch fluorescence ratio
GAGAGATTTT	0.997 ± 0.034
CTTGGGGGGA	0.997 ± 0.029
TATTAGACTA	1.02 ± 0.022
CGGGTAAATA	1.011 ± 0.0084
AGAATGGATC	1.01 ± 0.012
CAAATGGCTG	1.04 ± 0.074
TTAGCTGGCA	1 ± 0.027
TTTGTTGTAC	1.06 ± 0.058
GTTTGAGTTT	0.996 ± 0.026
GAGTATTGGT	0.9817 ± 0.0094
TGAAACACCG	1.46 ± 0.66
GGTTGTTGAG	0.987 ± 0.052
AGAGGGTCCT	1.03 ± 0.034
GTGTTCGGGC	1.02 ± 0.011
GGCCGGTTGC	1.03 ± 0.071
CTGGTCGGGT	1 ± 0.006
TGATGTCTAG	0.967 ± 0.021
CATCAGGGCT	1.06 ± 0.051
TTCGTTATAG	1.01 ± 0.044
TCGTTGGGAT	0.986 ± 0.053
AAGTCGGTTA	1 ± 0.02
ATGGGGGCCA	0.974 ± 0.019
AGGAACGTAC	1.61 ± 0.057

Sequence	switch fluorescence ratio
AGAAAGGGGC	1.31 ± 0.31
TTTGTCCCGT	0.98 ± 0.026
GATACGTGGG	0.9702 ± 0.0065
TAGTTGGTTG	0.974 ± 0.027
TCTGTATCTA	0.993 ± 0.021
TGTTGCCTGG	0.978 ± 0.023
CTTGTGCAAG	1.03 ± 0.024
GGATTGGATG	0.983 ± 0.046
AGGAGGGGGA	1.03 ± 0.045
GTATGGTGGG	1.02 ± 0.04
TTCGACATGT	1.025 ± 0.0042
CTCATAGCGC	1.02 ± 0.035
GGTTGATTGG	0.973 ± 0.014
CTGGTACGAC	1.13 ± 0.016
GTTTTCGGAT	0.983 ± 0.013
TTGGATCAAC	1.04 ± 0.051
ATTGATTCAA	0.996 ± 0.02
CGAGTTGGAG	1.01 ± 0.025
TTTACCCTCC	1.21 ± 0.13
GAACCGGATG	0.9997 ± 0.0074
TCCCAGAACG	1.062 ± 0.0077
GTAGGGGGTC	1.01 ± 0.027
CCAGTACTGA	1.021 ± 0.0094

Sequence	switch fluorescence ratio
GGTATCGCGG	1 ± 0.023
GTTTTCAATT	0.983 ± 0.01
AGCGGTTTCG	0.986 ± 0.023
AGGTCTGGCA	0.995 ± 0.016
TTATAGTGGG	1 ± 0.022
CGTAGGTAAT	1.01 ± 0.04
CGGTTTGTCT	0.986 ± 0.018
CTTGTATACG	0.9888 ± 0.001
GTGTTACGTT	1.02 ± 0.021
GGATTCAAAG	0.993 ± 0.015
TATGTGAGGC	0.993 ± 0.011
TACATTAATA	1.054 ± 0.0049
TTATTAAAAG	1.2 ± 0.39
CTGGCTGTCT	1.02 ± 0.036
TATCGGAGAG	0.9835 ± 0.0016
TTCGCGATGT	1.13 ± 0.11
GGGGACATGG	1.07 ± 0.11
TAGGACGCGG	1.04 ± 0.052
CTATGGAGTG	0.9928 ± 0.0039
TAGAAGTCTG	1.06 ± 0.012
AAGGGGGTTG	0.975 ± 0.044
TTTGATATAG	0.994 ± 0.034
GAGGAGGGTA	0.966 ± 0.086

Sequence	switch fluorescence ratio
AGGGATCAGC	1 ± 0.008
ATAAGGCGGG	0.971 ± 0.031
ACGCGGACGG	1.05 ± 0.016
GGTGCATGTG	0.9713 ± 0.0013
CTTTTAGTGT	0.963 ± 0.032
CATATTGGGG	0.963 ± 0.022
ACTCATATAT	1.02 ± 0.0045
GGGGTTCACT	1.01 ± 0.029
AGTTTTGGCA	1.03 ± 0.015
CTTAGGGTTT	0.988 ± 0.019
GAATATCTGG	0.97 ± 0.011
GTGCATGCGT	0.998 ± 0.03
CTGACCGGTC	1.017 ± 0.0087
ATATGAACGA	1.021 ± 0.0066
GATTTAGGTA	0.968 ± 0.027
AAATATAAAC	1.03 ± 0.087
GGGGAAACGG	1.06 ± 0.085
GATCAGTGGC	1.05 ± 0.071
TGCAATGTTG	1.04 ± 0.047
GCACGCGTGC	1.01 ± 0.044
TCCAGGGGGT	2.41 ± 0.044
TGGGCAAAGT	0.9863 ± 0.0074
ATTGGTTGGT	0.978 ± 0.048

Sequence	switch fluorescence ratio
ATTCTGCGGA	1.01 ± 0.019
TTATTTGTTG	0.971 ± 0.05
AATATTAGCC	0.957 ± 0.02
CATACTCTTC	1 ± 0.065
TTCAAATATA	1.003 ± 0.0017
TTGTGTTTTC	0.9971 ± 0.006
TTTGTAATGG	1.08 ± 0.14
GATGGGAGGT	1.008 ± 0.0046
TAGGATGGGT	0.99 ± 0.017
TTTTATTTAT	1.02 ± 0.053
TTAGCGGTAT	1.08 ± 0.087
TAAAGAAGGG	0.988 ± 0.033
CTGGGATTTG	0.997 ± 0.049
GCTTTGGGAC	1.25 ± 0.28
TCAGCGTGGG	1.04 ± 0.054
AAGTAGGGGG	0.951 ± 0.016
CTTTTACTAA	1.024 ± 0.0071
GCTTCGGGGG	1.06 ± 0.043
AAGTTCAGTT	1.01 ± 0.016
GCGGGGGCGG	1.01 ± 0.018
CATAGGGGAA	1.01 ± 0.011
TGAGTCTAG	0.997 ± 0.038
ACTTTCAGCC	1.03 ± 0.017

Sequence	switch fluorescence ratio
TAGGGGTATG	1.06 ± 0.096
AATCGGGCAG	1.04 ± 0.021
ATTTCAGAGG	1.02 ± 0.017
TGCGCCTCAG	1.08 ± 0.074
ACTTTGCCAC	1.18 ± 0.016
ATGTTTAATC	0.986 ± 0.023
CTAACTAAGG	1.015 ± 0.0095
GTCGCGGGGT	1.027 ± 0.0036
GTTGGGTAGG	0.963 ± 0.028
CGAGATATTG	0.9827 ± 0.0019
AGGGGGATGT	0.974 ± 0.05
ATGGGGATTT	0.991 ± 0.01
CTCGAAGTTG	0.9692 ± 0.0025
GAGAGAGGGT	0.997 ± 0.014
TAAGTCGTTG	1.03 ± 0.12
GCGGGTTGGC	1.08 ± 0.011
CTAGCTGTAG	1.04 ± 0.03
GGGGTTTGGA	0.987 ± 0.024
TGGGTATGTG	0.972 ± 0.038
